Positions count from the first letter of the chain named.
Assays:
[1] = molecular target: T1, human TNFR2 on the surface of CHO-TNFR2 cells (human, UniProt P20333 23-461); assay: flow cytometry on CHO-TNFR2 cells
T1 construct: whole, on cells
T1 sequence (looked up): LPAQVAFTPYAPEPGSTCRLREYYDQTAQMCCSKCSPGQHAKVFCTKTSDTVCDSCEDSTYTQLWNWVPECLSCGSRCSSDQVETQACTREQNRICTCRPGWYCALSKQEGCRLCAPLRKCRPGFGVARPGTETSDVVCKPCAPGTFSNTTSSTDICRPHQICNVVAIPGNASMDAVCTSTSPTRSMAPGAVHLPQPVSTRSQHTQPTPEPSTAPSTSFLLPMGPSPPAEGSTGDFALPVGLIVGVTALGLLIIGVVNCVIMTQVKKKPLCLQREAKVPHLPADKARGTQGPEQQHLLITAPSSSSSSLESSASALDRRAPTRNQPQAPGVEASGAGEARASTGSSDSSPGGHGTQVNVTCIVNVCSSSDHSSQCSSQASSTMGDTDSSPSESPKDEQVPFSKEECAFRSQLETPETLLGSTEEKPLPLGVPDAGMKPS
Procedure: The transfected full-length plasmid of human TNFR2 was purchased from Sino Biological (Cat #HG10417-UT, NCBI Ref Seq: NM_001066.2). The experiment was conducted at a cell density within 80%. The cell medium was discarded; the cells were rinsed with PBS, and digested with 1 ml trypsin for 2 minutes; the digestion was stopped with a Ham's F12 complete medium containing 10% FBS, and then a cell suspension was made. The cell suspension was counted, and then an appropriate amount of cell suspension was centrifuged at 350×g; the supernatant was discarded; a corresponding volume of blocking solution (10% FBS+PBS) at a density of 1×10⁷ cells/ml was added to resuspend the cells, and the mixture was incubated at 4° C. for 30 minutes. After the incubation, the mixture was centrifuged at 350×g to remove the supernatant, and the cells were resuspended in a staining buffer (2% FBS+PBS) to a density of 2×10⁶ cells/ml, and spread onto a 96-well plate, with 50 μl of cell suspension added to each well for later use. The antibody was diluted with PBS for 10-fold gradient dilution from the highest concentration of 20 μg/m (twice the concentration); the diluted antibody was added to the well containing 50 μl of cell suspension, and placed on a microplate shaker for shaking at 500 rpm for 1 minute, so that the antibody was fully mixed with the cells; the mixture was incubated at 4° C. for 1 h. After the incubation, the cells were washed twice with the staining buffer, with 100 μl per well, and centrifuged at 350-g for 5 minutes, and the supernatant was discarded. The PE goat anti-Human IgG Fc antibody (ebioscience, Cat #12-4998-82) was diluted 250-fold with the staining buffer, with a volume of 100 μl per well added to the washed cell wells; the mixture was mixed evenly, and stained at 4° C. for 30 minutes. After the staining, similarly, the cells were washed twice with the staining buffer; finally, the cells were resuspended in 200 μl of staining buffer; signals were detected by a flow cytometer (Thermo Attune NxT). The stronger the signal, the stronger the binding ability of an antibody to TNFR2. The binding curve of an antibody was drawn with antibody concentration as the abscissa and corresponding mean fluorescence intensity (MFI) fold as the ordinate, and fitted with four parameters (GraphPad Prism9) to calculate the EC50 value.

[2] = molecular target: T2, human TNFR2 (Novoprotein, Cat #C830) (human, UniProt P20333 23-257, limits assumed); assay: competition ELISA, human TNFR2 coated, competitor human TNFα-Biotin
T2 construct: construct not described; also called human TNFR2 protein
T2 sequence (looked up): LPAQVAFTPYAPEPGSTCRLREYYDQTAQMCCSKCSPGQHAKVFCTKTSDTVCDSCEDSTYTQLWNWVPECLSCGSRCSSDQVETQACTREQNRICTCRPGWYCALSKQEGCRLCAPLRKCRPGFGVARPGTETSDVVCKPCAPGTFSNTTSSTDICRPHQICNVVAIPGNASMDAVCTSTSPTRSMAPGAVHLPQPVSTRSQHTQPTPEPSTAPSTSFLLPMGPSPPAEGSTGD
Procedure: (§1) 1 μg/ml human TNFR2 (Novoprotein, Cat #C830) was pre-coated with 100 μl/well […] in an ELISA plate. All the test TNFR2 antibodies were subjected to 2.5-fold gradient dilution from the highest concentration of 30 μg/ml; the diluted antibodies were mixed with 15 ng/ml human TNFα-Biotin (Acro Biosystem, Cat #TNA-H82E3) in equal volume, respectively; the resulting mixture was added to the ELISA plate at 100 μl/well, and incubated with shaking at room temperature for 2.0 hours. The plate was washed, and then a Streptavidin-HRP working solution (diluted at 1:10000) was added at 100 μl/well, and the mixture was incubated with shaking at room temperature for 40 minutes. The plate was washed again, and then the substrate TMB of HRP was added to develop colour. A stop solution was added to stop the reaction, and then a microplate reader (MD 13) was used to read the absorbance value. The inhibitory curve of an antibody was drawn with antibody concentration as the abscissa and corresponding OD value as the ordinate, and fitted with four parameters (GraphPad Prism9) to calculate the IC50 value. The smaller the IC50 value, the stronger the ability of an antibody to inhibit the binding of human TNFα to human TNFR2. The blocking effect of a humanized antibody was normalized to its corresponding human-murine chimeric antibody WT. The higher the percentage value, the better the inhibitory effect of the humanized antibody.

[3] = molecular target: T2, human TNFR2 (Novoprotein, Cat #C830); assay: competition ELISA, competitor human TNFα-Biotin; area under the OD curve
Procedure: as §1

B1: 219-WT (antibody, V domains shown)
VH: EVQLQESGAELVRPGASVKLSCKASGYSFTNYWMNWVKQRPGQGLEWIGMIHPSDTETRLNQNFKDKATLTVDKSSSTSYMQLSSPTSEDSAVYYCARGEGLGAARSVSMDYWGQGTTVTVSS
VL: DILMTQSPSSLSASLGDRVTISCRASQDISNYLNWYQQKPDGTVKVLIYYTAILHSGVPSRFSGSGSGTDYSLTISNLEQEDIATYFCQQGNTLPWTFGGGTKLEIK
notes: Human-murine chimeric wild-type molecule
EC50 [1]: 0.026 ng/mL

B2: 219-Hu3 (antibody, V domains shown)
VH: QVQLVQSGAEVKKPGSSVKVSCKASGYSFTNYWMNWVRQAPGQGLEWMGMIHPSDTETRLNQNFKDRVTITADKSTSTAYMELSSLRSEDTAVYYCARGEGLGAARSVSMDYWGQGTLVTVSS
VL: B1 VL with L3Q, L15V, S22T, V46L, N77S, E79Q, Q80P, I83F, G100Q, L104V
notes: also called VH5 + VL5
IC50 [2]: 545 ng/mL
AUC [3]: 8.16
EC50 [1]: 0.018 ng/mL

B3: 219-Hu2 (antibody, V domains shown)
VH: B2 VH with R67K, V68A
VL: B1 VL with L3Q, L15V, S22T, V46L, N77S, E79Q, Q80P, I83F, G100Q, L104V
notes: also called VH4 + VL5
IC50 [2]: 472 ng/mL
AUC [3]: 7.82
EC50 [1]: 0.027 ng/mL

B4: 219-Hu5 (antibody, V domains shown)
VH: B2 VH with A72V
VL: B1 VL with L3Q, L15V, S22T, V46L, N77S, E79Q, Q80P, I83F, G100Q, L104V
notes: also called VH7 + VL5
IC50 [2]: 578 ng/mL
AUC [3]: 7.96
EC50 [1]: 0.018 ng/mL

B5: 219-Hu1 (antibody, V domains shown)
VH: B2 VH with S16A, G44R, A72R, K74T, T76A
VL: B1 VL with L3Q, L15V, S22T, V46L, N77S, E79Q, Q80P, I83F, G100Q, L104V
notes: also called VH3 + VL5
IC50 [2]: 490 ng/mL
AUC [3]: 7.92
EC50 [1]: 0.026 ng/mL

B6: 219-Hu4 (antibody, V domains shown)
VH: B2 VH with R38K, M48I, R67K, V68A, I70L, A72V
VL: B1 VL with L3Q, L15V, S22T, V46L, N77S, E79Q, Q80P, I83F, G100Q, L104V
notes: also called VH6 + VL5
IC50 [2]: 606 ng/mL
AUC [3]: 7.66
EC50 [1]: 0.018 ng/mL

B7: 001-WT (antibody, V domains shown)
VH: EVQLQESGGGLVQPGGSLNLSCAASGFAFSTYDLSWVRQTPEKRLEWVAYINNGGISTYYSDTVKGRFTISRDNAKNTLYLQMSSLKSEDTAMYYCVRGPFYGSANYFDYWGQGTTVTVSS
VL: EIVMTQSPASLSLSVGETVTITCRTSESIYSNLPWYQQKQGKSPQLLVYDATKLAEGVPSRFSGSESGTQYSLKINSLQSEDFGTYYCQHFWVTPWTFGGGTKLEIK
notes: Human-murine chimeric wild-type molecule; also called human-murine chimeric antibody WT of #001
EC50 [1]: 0.035 ng/mL

B8: 001-Hu5 (antibody, V domains shown)
VH: B7 VH with Q5V, N19R, T40A, E42G, R44G, S84N, K87R, S88A, M93V, T116L
VL: DIQMTQSPSSLSASVGDRVTITCRTSESIYSNLPWYQQKPGKSPKLLVYDATKLAEGVPSRFSGSGSGTDYTLTISSLQPEDFATYYCQHFWVTPWTFGQGTKVEIK
notes: Humanized form of #001; also called VH1 + VL4
IC50 [2]: 656 ng/mL
AUC [3]: 8.02
EC50 [1]: 0.029 ng/mL

B9: 001-Hu4 (antibody, V domains shown)
VH: EVQLVESGGGLVQPGGSLRLSCAASGFAFSTYDLSWVRQAPGKGLEWVAYINNGGISTYYSDTVKGRFTISRDNAKNSLYLQMNSLRAEDTAVYYCVRGPFYGSANYFDYWGQGTLVTVSS
VL: B8 VL
notes: Humanized form of #001; also called VH2 + VL4
IC50 [2]: 590 ng/mL
AUC [3]: 7.86
EC50 [1]: 0.027 ng/mL

B10: 001-Hu3 (antibody, V domains shown)
VH: B9 VH with S78T
VL: B8 VL with S43A, V48I
notes: Humanized form of #001; also called VH1 + VL3
IC50 [2]: 597 ng/mL
AUC [3]: 7.87
EC50 [1]: 0.035 ng/mL

B11: 001-Hu2 (antibody, V domains shown)
VH: B9 VH
VL: B8 VL with V48I, Y71F
notes: Humanized form of #001; also called VH2 + VL2
IC50 [2]: 780 ng/mL
AUC [3]: 8.1
EC50 [1]: 0.073 ng/mL

B12: 001-Hu1 (antibody, V domains shown)
VH: B9 VH with S78T
VL: B8 VL with S43A, V48L
notes: Humanized form of #001; also called VH1 + VL1
IC50 [2]: 573 ng/mL
AUC [3]: 7.63
EC50 [1]: 0.045 ng/mL

B13: 224-Hu1 (antibody, V domains shown)
VH: QVQLVQSGAEVKKPGASVKVSCKASGFNNKDIYMHWVRQAPGQGLEWIGRIDPATGNTKHDPKFQDRVTMTSDTSTNTVYMELSSLRSEDTAVYYCARSPYGDFGAMDYWGQGTLVTVSS
VL: DIQMTQSPSSLSASVGDRVTITCTASSSVSSNYLHWYQQKPGKAPKLWIYSTSNLPSGVPSRFSGSGSGTDFTLTISSLQPEDFATYYCHQYHRSPWTFGQGTKVEIK
notes: Humanized form of #224; also called VH8 + VL6
IC50 [2]: 441 ng/mL
AUC [3]: 7.12
EC50 [1]: 0.04 ng/mL

B14: 224-Hu7 (antibody, V domains shown)
VH: QVQLVQSGSELKKPGASVKVSCKASGFNNKDIYMHWVRQAPGQGLEWMGRIDPATGNTKHDPKFQDKAVLSSDTSVSTAYLQISSLKAEDTAVYYCARSPYGDFGAMDYWGQGTLVTVSS
VL: B13 VL with W48L
notes: Humanized form of #224; also called VH9 + VL10
IC50 [2]: 561 ng/mL
AUC [3]: 7.44
EC50 [1]: 0.03 ng/mL

B15: 224-Hu5 (antibody, V domains shown)
VH: B14 VH
VL: B13 VL with W48L, F72Y, T73S
notes: Humanized form of #224; also called VH9 + VL9
IC50 [2]: 528 ng/mL
AUC [3]: 6.87
EC50 [1]: 0.04 ng/mL

B16: 224-Hu3 (antibody, V domains shown)
VH: B14 VH
VL: B13 VL with W48L, P81A, F84A
notes: Humanized form of #224; also called VH9 + VL8
IC50 [2]: 441 ng/mL
AUC [3]: 6.34
EC50 [1]: 0.03 ng/mL

B17: 224-Hu4 (antibody, V domains shown)
VH: B14 VH
VL: B13 VL
notes: Humanized form of #224; also called VH9 + VL6
IC50 [2]: 458 ng/mL
AUC [3]: 6.25
EC50 [1]: 0.03 ng/mL

B18: 224-Hu2 (antibody, V domains shown)
VH: B14 VH
VL: B13 VL with K43S, A44S
notes: Humanized form of #224; also called VH9 + VL7
IC50 [2]: 440 ng/mL
AUC [3]: 7.18
EC50 [1]: 0.03 ng/mL

B19: 224-Hu6 (antibody, V domains shown)
VH: B13 VH
VL: B13 VL with K43S, A44S
notes: Humanized form of #224; also called VH8 + VL7
IC50 [2]: 439 ng/mL
AUC [3]: 6.46
EC50 [1]: 0.03 ng/mL

B20: 224-WT (antibody, V domains shown)
VH: EVQLQESGPEIVKPGASVKLSCTASGFNNKDIYMHWVKQRPEQGLEWIGRIDPATGNTKHDPKFQDKATLSSDTSSNTAYLQFSSLTSEDTAVYYCAHSPYGDFGAMDYWGQGTTVTVSS
VL: DIQMTQSPAIMSASLGERVTMTCTASSSVSSNYLHWYQQKPGSSPKLWIYSTSNLPSGVPARFSGSGSGTSYSLTISSMEAEDAATYYCHQYHRSPWTFGGGTKLEIK
notes: Human-murine chimeric wild-type molecule; also called human-murine chimeric antibody WT of #224
EC50 [1]: 0.04 ng/mL
